Test results published in the supplement of paper PMC9732359.
± gives the uncertainty stated by the source.

experiment: protein stability index of a GFP-peptide fusion (yeast GPS) (PSI 1-4); higher = more stable; sorted into four equal gates, so the index is relative within each strain; conditions: ubr1∆
Method in brief: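 Each library plasmid carries Cherry plus GFP with a tiled 17-residue yeast protein peptide fused downstream, and the pooled library was carried in yeast. Mid-log cultures in leucine-free medium were sorted into four equal gates by GFP/Cherry ratio. Reads from Illumina sequencing of PCR-amplified plasmids from each gate were assigned to strains by barcodes. Per peptide, the protein stability index was computed as the summed products of gate read frequency and gate number.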

Row | Sequence | protein stability index
1 | CERRSTLKLQDTRITPS [PRE6] | 2.82 ± 0.059
2 | CFICLLHLANEHGLQIT [BRN1] | 2.87 ± 0.087
3 | CHLYSQRMHAIHEIDER [NNF1] | 1.63 ± 0.073
4 | CIECQPKAMTDTDNECV [HRT1] | 3.32 ± 0.062
5 | CINKWIKTRDACPLDNQ [HRT1] | 3.17 ± 0.05
6 | CKRELAFVKQKNDSLEK [YIL149C/MLP2] | 3.43 ± 0.19
7 | CLDRCKEQYNRYRDLMI [MTR3] | 2.88 ± 0.063
8 | CNNINKGLKENDVAVEK [BRR2] | 3.43 ± 0.12
9 | CQLQNSDNSEEEEVDID [RRP43] | 3.13 ± 0.056
10 | CRELHNKHLTTLVEIFL [SSN3] | 1.7 ± 0.04
11 | CRLFFTELASKDNAIYN [YCS4] | 1.32 ± 0.047
12 | CYEKVLESINEGNQIIV [BRR2] | 2.34 ± 0.1
13 | DAAAEKRNGDEVYTLVD [ARP7] | 3.06 ± 0.056
14 | DAFNMLSLTTVPCDRIE [SNF6] | 2.4 ± 0.069
15 | DAFRVHICGICGLMTVI [RPB2] | 1.43 ± 0.062
16 | DAGKLVYVTGGRNLGRI [RPS4A] | 1.89 ± 0.28
17 | DAIWSLVFQLAKNFSAQ [SRB8] | 2.61 ± 0.041
18 | DANPSSQIIARNEEILR [SMC2] | 2.76 ± 0.11
19 | DDALHAKKLPNGNWEVG [DIS3] | 3.05 ± 0.057
20 | DDDDEDDDEIVMPVPNV [SKP1] | 3.21 ± 0.11
21 | DDDEVDYSEIQRSRRKF [DSN1] | 2.75 ± 0.16
22 | DDEDDEHNPTIVGGLYY [AAR2] | 3.4 ± 0.1
23 | DDEDEDDSDNVMSSDDE [PRE10] | 3.12 ± 0.17
24 | DDENNPSHYPHPYEYEI [RRP6] | 2.89 ± 0.029
25 | DDFFKELAKEAKKSTTI [ESC2] | 3.36 ± 0.091
26 | DDGDDEDLLECLDRCKE [MTR3] | 2.77 ± 0.11

Row | Sequence | protein stability index
27 | DDLEKTLDKKDSIPLRI [RPN9] | 2.33 ± 0.11
28 | DDNETENPNFWRQFGNR [GRR1] | 3.21 ± 0.056
29 | DDTKNQDSMSKGTGEES [YGR119C/NUP57] | 3.42 ± 0.057
30 | DDVKNILNAKYTKETYQ [RPN6] | 3.12 ± 0.064
31 | DDVYRPAAESKIFTPNL [SNF5] | 3.23 ± 0.19
32 | DEAKDFIVSGTASDQLF [PUP3] | 2.92 ± 0.076
33 | DEDDDQPMISPDNSIFG [SWI3] | 2.94 ± 0.088
34 | DEDEDEDEDDDDDDDED [QCR6] | 1.98 ± 0.05
35 | DEEMAVLTRMDEDRSKK [SNF2] | 2.57 ± 0.072
36 | DEKKDSDSSKPAFSFGT [YJL041W/NSP1] | 2.97 ± 0.042
37 | DELDAIGTKRFDSEKSG [RPT5] | 1.99 ± 0.057
38 | DELVKLLLDNGFNMKKI [SRP68] | 3.52 ± 0.13
39 | DEMYELTDPMTVMFFYH [DIB1] | 2.85 ± 0.11
40 | DENKAGATSKPAFSFGA [YJL041W/NSP1] | 3.1 ± 0.061
41 | DEVGRRSMLTVVRNMLA [YCG1] | 1.52 ± 0.069
42 | DFDESLKYLDDLKAQFQ [RPN9] | 3.11 ± 0.081
43 | DFIGHNSNINTLTASPD [ASC1] | 2.96 ± 0.039
44 | DFLGVASTGSGKTLAFV [PRP28] | 3.31 ± 0.061
45 | DFPHLTPKLQTQLSYLI [YCS4] | 2.67 ± 0.038
46 | DFQIDGNIFELLSDTFE [RRI2] | 3.16 ± 0.17
47 | DFRTRYIDIRTNNVLRK [MTW1] | 2.66 ± 0.14
48 | DFTLIPRMASVFENYVK [CDC53] | 3.13 ± 0.081
49 | DGHLRAPLKHGVGILYK [BRR2] | 1.26 ± 0.07
50 | DGYQLFHAEPSGTFYRY [PUP2] | 1.5 ± 0.076
51 | DHKYVCTFSMEPYHFIS [SRB8] | 2.09 ± 0.043
52 | DHQHILRKLKKMNNKPE [RPC53] | 1.51 ± 0.044

Row | Sequence | protein stability index
53 | DIDVTIVSKEYEKNFEA [ESC2] | 3.42 ± 0.16
54 | DIEVPDVNALKFNNTQR [SNF12] | 3.09 ± 0.051
55 | DIFAVNLEESSKLDIYT [RET1] | 3 ± 0.08
56 | DIIQGNPLMYSGGNNTA [PCI8] | 3.24 ± 0.072
57 | DIKDFADKVYTKENLEV [QCR2] | 3.33 ± 0.053
58 | DIPGVRFKVVKVSGVSL [RPS23A] | 1.06 ± 0.079
59 | DIVSIDIEEPQLDLLDD [MTW1] | 3.16 ± 0.048
60 | DIWRVAGKFELLDRILP [SNF2] | 2.54 ± 0.1
61 | DIYMHDVNSASKSESDS [RRP4] | 3.22 ± 0.066
62 | DKARRLGYKAKQGFVIY [RPL15A] | 3.28 ± 0.25
63 | DKETQLKKRAVSGVELR [POP7] | 2.27 ± 0.25
64 | DKILQLNDRFQTLSSHL [PGD1] | 2.46 ± 0.058
65 | DKKLLRRLLNLYNDNNK [SWI1] | 2.6 ± 0.068
66 | DKKQQTIDEQSQISPEK [RPN1] | 3.26 ± 0.046
67 | DKKYKGLTTVWLLSALG [REC8] | 2.29 ± 0.039
68 | DKLEKVTHDCYRVTLES [RPC34] | 3.12 ± 0.085
69 | DKLINDVTAIQTWSYLS [ECM29] | 1.83 ± 0.044
70 | DKLLDFIRYDVKTPKKT [CSN12] | 2.99 ± 0.053
71 | DKQGWTPLFHALAEGHG [NAS6] | 3.01 ± 0.17
72 | DKSTKTAEAPTLSFNFS [YOR098C/NUP1] | 3.23 ± 0.084
73 | DKTAVKLDTEVKNTNAN [SWP82] | 1.96 ± 0.056
74 | DLAMANSLRRVMIAEIP [RPB3] | 1.44 ± 0.068
75 | DLCSLKPYVDRFAFSVI [DIS3] | 2.27 ± 0.04
76 | DLEHKEDCVEEFFHLQH [QCR6] | 3.37 ± 0.1
77 | DLENKFNRLKKQAHEKL [YIL149C/MLP2] | 2.81 ± 0.063
78 | DLETSLSQSSSYLETLT [MED2] | 2.96 ± 0.099

Row | Sequence | protein stability index
79 | DLFGDSNKSNSTNESNK [SSN2] | 3.29 ± 0.058
80 | DLFSNNNYNSRIQLMND [MED1] | 3.06 ± 0.13
81 | DLGITEKNDQNNDDDDN [MCD1] | 3.41 ± 0.24
82 | DLIKFSAETLSELIRTT [FAS1] | 2.12 ± 0.073
83 | DLKSLNVRDDMKPSDNI [SSN2] | 2.57 ± 0.097
84 | DLLILTRSIKEKWLLNQ [SRB6] | 1.24 ± 0.17
85 | DLLNAASIESADILCPL [IRR1] | 2.79 ± 0.058
86 | DLQLLYVESDEDDTQIV [IRR1] | 3.16 ± 0.12
87 | DLRIRIKLDIVVGQNQL [SNF5] | 1.75 ± 0.071
88 | DLSLLGYCDDIAAMVAQ [SIR2] | 2.24 ± 0.041
89 | DLYEQIGIDPPRGVLLY [RPT3] | 2.9 ± 0.08
90 | DMDGVDFNQAFEGTDDN [BRN1] | 3.17 ± 0.072
91 | DNDFIINDFKKIGRENE [POP5] | 3.35 ± 0.047
92 | DNDRFNVVGKLISIISS [YML103C/NUP188] | 1.2 ± 0.047
93 | DNEEWMNDVINTEEVNR [LIN1] | 3.39 ± 0.085
94 | DNIDYAPMRLATAALEI [YJL039C/NUP192] | 2.31 ± 0.042
95 | DNKDKEGNAGGDQKTSE [YOR098C/NUP1] | 3.35 ± 0.074
96 | DNNSKAEASFTFGTKHA [YLR335W/NUP2] | 3.02 ± 0.053
97 | DNNSSLNVSNTKENGDF [PRP8] | 3.39 ± 0.074
98 | DNSNVMTVKLESITYQK [RGR1] | 2.93 ± 0.1
99 | DPFFAQSEDLSHAVEFF [YML103C/NUP188] | 3.14 ± 0.042
100 | DPNEVEIKKLLATNSLV [DIS3] | 2.29 ± 0.046
101 | DPNEVKYLYLRAVGGEV [RPL12A] | 1.53 ± 0.039
102 | DPNLELDQVGVPKSIAK [RPO21] | 3.11 ± 0.16
103 | DPNLSFESSSSLPFLLR [SSN2] | 2.82 ± 0.13
104 | DPQDVFNYNIFMHDPSV [SIR2] | 2.69 ± 0.089
